Test results as given in patent US20230265183A1 (MABWELL SHANGHAI BIOSCIENCE, published 2023).

T1: murine Nectin4 (NP_082169) (murine, UniProt Q8R007 31-508)
T1 construct: whole, on cells; also called muNectin4
T1 sequence (looked up): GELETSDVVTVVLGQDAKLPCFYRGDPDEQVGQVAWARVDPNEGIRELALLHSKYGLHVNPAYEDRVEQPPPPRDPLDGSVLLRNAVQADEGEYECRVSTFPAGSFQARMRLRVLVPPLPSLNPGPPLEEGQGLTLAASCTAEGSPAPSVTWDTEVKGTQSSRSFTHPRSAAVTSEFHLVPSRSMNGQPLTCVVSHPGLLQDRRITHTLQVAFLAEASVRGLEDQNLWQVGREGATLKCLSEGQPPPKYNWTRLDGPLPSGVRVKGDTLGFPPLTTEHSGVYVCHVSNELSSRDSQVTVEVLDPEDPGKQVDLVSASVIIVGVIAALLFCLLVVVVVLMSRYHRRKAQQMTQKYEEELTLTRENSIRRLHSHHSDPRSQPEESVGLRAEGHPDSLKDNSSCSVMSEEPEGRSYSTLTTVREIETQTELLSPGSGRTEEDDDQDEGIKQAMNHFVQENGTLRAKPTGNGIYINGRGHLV

T2: Cyno Nectin4 (Cyno, UniProt Q96NY8 32-510 (human entry))
T2 construct: Expressed on HEK293 cells (HEK-cynoNectin4)
T2 chain: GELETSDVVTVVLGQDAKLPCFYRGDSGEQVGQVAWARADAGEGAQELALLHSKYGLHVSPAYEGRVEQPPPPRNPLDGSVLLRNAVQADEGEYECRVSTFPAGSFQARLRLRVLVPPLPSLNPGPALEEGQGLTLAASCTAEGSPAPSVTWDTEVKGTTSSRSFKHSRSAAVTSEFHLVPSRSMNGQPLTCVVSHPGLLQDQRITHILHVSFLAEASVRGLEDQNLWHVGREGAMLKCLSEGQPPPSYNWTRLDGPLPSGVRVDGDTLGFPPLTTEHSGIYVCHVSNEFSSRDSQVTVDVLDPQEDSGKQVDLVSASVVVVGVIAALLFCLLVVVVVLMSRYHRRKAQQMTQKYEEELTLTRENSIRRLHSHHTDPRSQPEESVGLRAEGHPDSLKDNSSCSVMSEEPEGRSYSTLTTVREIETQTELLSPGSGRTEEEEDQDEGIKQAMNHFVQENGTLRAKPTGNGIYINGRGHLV

T3: human Nectin-4 (human, UniProt Q96NY8 32-510)
T3 construct: whole, on cells; Cell-surface target of the FACS, endocytosis and proliferation assays (CHO-huNectin4 S8 cells, BT474 cells); the assay field says which cells; also called huNectin4; PVRL4
T3 sequence (looked up): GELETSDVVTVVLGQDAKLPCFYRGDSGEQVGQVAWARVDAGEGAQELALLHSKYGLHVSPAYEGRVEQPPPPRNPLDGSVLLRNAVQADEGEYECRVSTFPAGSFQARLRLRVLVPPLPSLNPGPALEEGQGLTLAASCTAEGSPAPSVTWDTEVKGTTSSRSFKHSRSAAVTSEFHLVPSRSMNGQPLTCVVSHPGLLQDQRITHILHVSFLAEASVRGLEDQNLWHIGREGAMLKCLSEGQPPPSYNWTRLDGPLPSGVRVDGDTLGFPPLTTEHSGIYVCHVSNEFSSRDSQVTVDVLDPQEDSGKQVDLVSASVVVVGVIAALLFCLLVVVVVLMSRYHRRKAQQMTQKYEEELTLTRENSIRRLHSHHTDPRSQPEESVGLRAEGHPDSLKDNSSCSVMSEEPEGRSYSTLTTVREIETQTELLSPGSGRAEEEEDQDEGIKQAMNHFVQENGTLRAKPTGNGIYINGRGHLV

T4: His-tagged human NECTIN4 (human, UniProt Q96NY8 32-349)
T4 construct: Antigen of the BIAcore assay; also called antigen; recombinant NECTIN4 protein; not shown: His tag
T4 sequence: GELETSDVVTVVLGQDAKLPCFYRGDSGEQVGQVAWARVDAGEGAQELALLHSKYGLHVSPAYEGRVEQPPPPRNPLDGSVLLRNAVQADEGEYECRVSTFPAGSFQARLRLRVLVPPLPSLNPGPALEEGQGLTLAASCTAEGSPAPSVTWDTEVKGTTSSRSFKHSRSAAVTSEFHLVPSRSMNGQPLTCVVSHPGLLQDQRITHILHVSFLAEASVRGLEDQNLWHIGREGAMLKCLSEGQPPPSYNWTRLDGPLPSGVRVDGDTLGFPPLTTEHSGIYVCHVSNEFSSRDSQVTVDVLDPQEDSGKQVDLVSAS

T5: human Nectin-4(C-6His), Novoprotein Cat# CJ19 (human, UniProt Q96NY8 32-349)
T5 construct: Bought protein; also called recombinant human Nectin4 protein; antigen Nectin-4
T5 sequence: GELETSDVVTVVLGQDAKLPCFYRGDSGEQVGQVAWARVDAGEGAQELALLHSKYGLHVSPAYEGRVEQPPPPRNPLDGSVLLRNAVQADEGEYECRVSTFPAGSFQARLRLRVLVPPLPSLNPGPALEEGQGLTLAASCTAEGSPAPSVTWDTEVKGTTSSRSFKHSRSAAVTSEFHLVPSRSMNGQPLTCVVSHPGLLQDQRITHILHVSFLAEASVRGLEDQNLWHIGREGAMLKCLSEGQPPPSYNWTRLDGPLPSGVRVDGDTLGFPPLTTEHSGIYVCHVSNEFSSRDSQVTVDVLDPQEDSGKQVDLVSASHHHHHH

T6: human Nectin-1(C-6His), Novoprotein Cat# C492 (human, UniProt Q15223 31-334, limits assumed)
T6 sequence: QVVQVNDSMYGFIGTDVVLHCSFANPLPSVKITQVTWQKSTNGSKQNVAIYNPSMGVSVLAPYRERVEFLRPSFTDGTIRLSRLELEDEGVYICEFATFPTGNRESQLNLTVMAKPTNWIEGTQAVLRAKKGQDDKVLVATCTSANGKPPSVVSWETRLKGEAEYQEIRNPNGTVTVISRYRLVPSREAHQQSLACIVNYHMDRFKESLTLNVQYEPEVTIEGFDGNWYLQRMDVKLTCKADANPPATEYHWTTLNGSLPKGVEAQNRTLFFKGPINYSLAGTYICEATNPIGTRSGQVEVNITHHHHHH

T7: human Nectin-2(C-6His), Novoprotein Cat# C440 (human, UniProt Q92692 32-360, limits assumed)
T7 sequence: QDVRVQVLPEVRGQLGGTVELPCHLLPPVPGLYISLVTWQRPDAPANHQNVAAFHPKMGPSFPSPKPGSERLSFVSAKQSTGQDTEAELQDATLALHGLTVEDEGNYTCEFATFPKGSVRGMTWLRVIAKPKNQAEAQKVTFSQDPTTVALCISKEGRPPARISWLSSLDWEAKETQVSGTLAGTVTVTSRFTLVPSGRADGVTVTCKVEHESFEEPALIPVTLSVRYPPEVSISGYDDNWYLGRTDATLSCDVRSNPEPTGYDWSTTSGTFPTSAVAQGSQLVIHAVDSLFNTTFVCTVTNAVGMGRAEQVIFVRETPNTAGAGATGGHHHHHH

B1: 42D20 hz63 (antibody, V domains shown)
VH: QVQLQESGPGLVKPSETLSLTCTVSGFSLIDYGVSWIRQPPGKGLEWIGVIWGGGKIYYNSVLKSRVTISKDNSKSQVSLKLSSVTAADTAVYYCAKQGGLLFYAMDYWGQGTLVTVSS
VL: DIVMTQSPDSLAVSLGERATINCKSSQSLLNTYSQKNYLAWYQQKPGQSPKLLIYFASTRESGVPDRFSGSGSETDFTLTISSLQAEDLAVYFCQQHYNTPFTFGAGTKLELKR
notes: Humanized
B2: murine antibody 30J3 (antibody, V domains shown)
VH: EVQLQQSGPDLVKPGASVKISCKASGYSFTDYYMHWVKQSRGKGLEWIGRVNPNNGNTLYNQKFRGKAILTVDKSSSTAYMELRSLTSDDSAVYYCAREDRYAFAYWGQGTLVTVSA
VL: DIVLTQSPASLAVSLGQRATISCRASQSVSTSSYTYMHWYQQKPGQPPKLLIKYASNLESGVPARFIGSGSGTDFTLNIHPVEEEDTATYYCQHTWEIPYTFGGGTKLEIK
notes: Murine monoclonal antibody from hybridoma; also called mIgG 30J3
B3: murine antibody 5M21 (antibody, V domains shown)
VH: QVQLQQSGPELVKPGASVRITCKASGYTFTTYYIHWVKQRPGQGLEWIGWIYPGNVNTKYNEKFKGKATLTADKSSSTAYMQLSSLTSEDSAVYFCARGLYYFDYWGQGTTLTVSS
VL: SIVMTQTPKFLLVSAGDRLTITCKASQSVSNDVAWYQQKPGQSPKLLIYYASNRYTGVPDRFTGSGYGTDFTFTISTVQAEDLAVYFCQQDYSSPYTFGGGTKLEIK
notes: Murine monoclonal antibody from hybridoma; also called mIgG 5M21
B4: murine antibody 20M12 (antibody, V domains shown)
VH: QVQLQQSGPELVKPGASVRISCKASGYTFTSYYIHWVKQRPGQGLEWIGWIYPGNANNKYNENFKGKATLTADKSSSTAYMQLSSLTSEDSAVYFCARSVYYFDYWGQGTTLTVSS
VL: SVVMTQTPKFLLVSAGDRVTITCKASQSVSNDVAWYQQKPGQSPKLLIYYASNRNTGVPDRFTGSGYGTDFTFNISTVQAEDLAVYFCQQDYSSPYTFGGGTKLEIK
notes: Murine monoclonal antibody from hybridoma; also called mIgG 20M12

Key:
[1] = molecular target: T1, murine Nectin4 (NP_082169); assay: FACS on HEK-muNectin4 cells
[2] = molecular target: T2, Cyno Nectin4; assay: FACS on HEK-cynoNectin4 cells
[3] = molecular target: T3, human Nectin-4; assay: FACS on CHO-huNectin4 S8 cells
[4] = molecular target: T4, His-tagged human NECTIN4; assay: SPR (BIAcore S200), antigen on CAP chip, antibody as analyte, 1:1 fit
Experimental: Interactions between the antibodies and the antigen were measured using a BIAcore instrument S200 from GE. Referring to the instructions provided in Biotin Capture Kit from GE Healthcare, the analytical channel and the control sample channel on CAP sensor chip were first coupled with antigen i.e. His-tagged human NECTIN4, then samples containing antibodies (diluted 3-fold from an initial concentration of 20 nM respectively and solutions of each antibody of 8 concentrations were obtained totally, and the concentration 0.741 nM was set to be repeated) were allowed to flow through both the analytical channel and the sample channel, and the photoreactions upon antibody-antigen binding were measured. Association constant Kon and dissociation constant Koff and affinity constant KD of each antibody were finally obtained by instrument software fitting (1:1 binding mode) analysis.

[5] = molecular target: T5, human Nectin-4(C-6His), Novoprotein …; assay: ELISA, plate coated with 1 µg/ml human Nectin-4(C-6His), HRP-labelled secondary antibody, absorbance at 450 nm
Experimental: (§1) Plates were coated with 1 µg/ml of the antigens and incubated at 4° C. overnight; next, antibodies serially diluted were added into the plates. Finally, the HRP-labeled secondary antibody was added, and absorbance at 450 nm was detected.

[6] = molecular target: T6, human Nectin-1(C-6His), Novoprotein …; assay: ELISA, plate coated with 1 µg/ml human Nectin-1(C-6His), absorbance at 450 nm. The text names only a goat anti-rabbit HRP secondary antibody
Experimental: as §1

[7] = molecular target: T7, human Nectin-2(C-6His), Novoprotein …; assay: ELISA, plate coated with 1 µg/ml human Nectin-2(C-6His), absorbance at 450 nm. The text names only a goat anti-rabbit HRP secondary antibody
Experimental: as §1

[8] = molecular target: T3, human Nectin-4; assay: FACS on BT474 cells
Experimental: (§2) The solutions of different concentrations were added to 384-well plates, 10 µl per well.
(§3) BT474 cells (breast cancer cells) expressing Nectin-4 on the cell surface were collected by centrifugation at 100 g at room temperature for 5 minutes, and then the cells were washed with PBS containing 0.5% BSA once and were centrifuged at 100 g at room temperature for 5 minutes. […] After incubation at 4° C. for 1 hour, fluorescently labeled goat anti-human IgG secondary antibody was added. After continued incubation at 4° C. for 1 hour, mean fluorescence readings of the cell populations were analyzed by a flow cytometer.

[9] = molecular target: T3, human Nectin-4; assay: cell-based or functional assay
[10] = molecular target: T3, human Nectin-4; assay: cell-based or functional assay; remark: listed apart in the source
[11] = molecular target: T3, human Nectin-4; assay: FACS on BT474 cells; remark: listed apart in the source
Experimental: as §2, §3

Row | Binder | EC50 [8] [µg/mL] | Endocytosis efficiency (%) [9] [%] | EC50 (ng/ml), inhibition of proliferation of BT474 cells [10] [ng/mL] | Percentage of cell killing at the highest concentration [10] [%] | other results
1 | B1 |  |  |  |  | EC50 [1]: 4.7 µg/mL; EC50 [2]: 2.45 to 4.06 µg/mL; EC50 [3]: 0.946 µg/mL; Kd [4]: 1.8 nM; EC50 (read off the curve) [5]: ~0.1 µg/mL; binding result [6]: no binding (tested: about 2.5 µg/ml (last point)); binding result [7]: no binding (tested: 10 µg/ml)
2 | B2 | 75 | 56 | 16.9 | 52.8 | 
3 | B3 | 25.4 | 69 | 42.3 | 33.5 | 
4 | B4 |  |  |  |  | EC50 [11]: 83.8 µg/mL
